# Source: patent US20160045158A1, “DEVICES, SYSTEMS, AND METHODS FOR TRANSDERMAL DELIVERY OF COMPOUNDS” (PROMETHEON PHARMA, LLC, priority 2013, published 2016)
# Tests used:
# [1] = tested on: EpidermFT™ (MatTek) full thickness human skin equivalent tissues; test: Transdermal flux/accumulation across EpidermFT full thickness human skin equivalents (Iso-Insulin ELISA of receptor fluid); assay type: in vitro ADME
# Experimental: Proof-of-concept ex vivo studies of transdermal delivery of long-acting insulin analogues by a poloxamer 188, propylene glycol and lauracopram formulation designated TopiconDM™ were performed using metabolically active full thickness human skin equivalent (HSE) inserts from EpidermFT™ (MatTek) grown on a semi-permeable membrane that allows test compounds to pass through the tissue and accumulate in the receptor fluid on the other side. It is important to note that the term TopiconDM™ is a trademark, is not descriptive of the subject formulation, and is merely an indication of the source of the subject formulation. Thus, the use of the term TopiconDM™ herein shall not be used to affect any trademark rights associated with the term TopiconDM™.
# All transdermal delivery in this model occurs exclusively by permeation across the barrier-enhanced stratum corneum. Drug permeation studies were modeled according to classic Franz cell in-sink diffusion studies. Studies were carried out for 5-7 continuous days to determine whether a 7-day TopiconDM™ basal insulin patch containing an insulin or insulin analogue is feasible. A semi-high throughput protocol was developed for the use of EpidermFT™, a barrier enhanced, mitotically and metabolically active human skin tissue model.
# To determine the feasibility of creating a 7-day (weekly) TopiconDM™ insulin glargine patch, a protocol was developed in which the tissue inserts were incubated in tissue culture maintenance medium (with serum). All insulin and insulin analogues were commercially purchased and lyophilized. TopiconDM™ insulin glargine formulations were specifically adjusted to pH 4.0; all other insulin formulations were adjusted to pH ˜7 were prepared to deliver doses ranging from 0.01-50 IU in a volume of 50 microliters at 32° C. applied to the apical surface of individual 0.6 cm^2 EpidermFT™ (MatTek) full thickness human skin equivalent tissues in 6-well plates containing 2.0 ml of receptor fluid incubated at 32° C. throughout the duration of each study. It was empirically determined that 50 microliters of the formulations was sufficient to cover the entire surface of the tissue inserts when applied directly to the center. 200 microliter samples from the receptor chamber on the basal side were removed at 0.5, 1, 2, 3, 6, 8, 12, 20, 24 hours and then every 24 hours for up to 7-days; 200 microliters of fresh maintenance medium with serum was added back to receptor chamber after each sampling (closed system model). Plasma insulin and insulin analogue accumulation in mIU/cm^2 (reflecting transdermal delivery across 0.6 cm^2 tissue surface area) was quantified using the Iso-Insulin ELISA Kit (Mercodia AB, Uppsala, Sweden).
# The MatTek EpidermFT™ (EFT-300) tissues are also documented to have more of the structural features of the basement membrane. […] The saturating dose for insulin glargine is 10 U/0.6 cm^2 since the flux is not increased at a dose of 20 U/0.6 cm^2. Indeed, the accumulation curves for these doses are superimposable. Results reflect ELISA measurements (Mercodia Iso-Insulin) performed in triplicate for samples at each time point.
# [2] = tested on: keratinized apical layer of the mouse cervix; details: in vivo
# Source text: The P188/PG (80/20 ratio) co-polymer was then used to deliver FITC-tagged 38 amino acid cytotoxic decoy peptides.
# To achieve topical delivery of decoy peptides into the entire mouse cervical T-zone, a solid FITC-tagged decoy peptide-containing co-polymer/enhancer rod was manually delivered into the endocervical canal and into one of the 2 cervical/uterine horns of a 7 month old K14E6 homozygous female transgenic mouse expressing the HPV type 16 E6 oncoprotein that synergizes with 1713-estradiol to induce low-grade dysplasia (CIN I, II) in situ that closely mimics the step-wise development of human cervical cancer; the “untreated” cervical served as an internal control.
# After animals were anesthetized, a “speculum” comprised of a standard P-100 pipette tip with the tip cut off at the midpoint along its length was inserted into the vagina to expose the opening of the cervical canal. A three-fourth inch long, 24-guage catheter (Teruma Surflush; inner diameter 0.47 mm) with the trocar removed was fit onto a compatible P-10 micropipette. The catheter was loaded with the peptide-containing, liquid co-polymer/enhancer formulation to a length that approximates the entire cervical T-zone and extends across the squamo-columnar junction into the uterine horn. […]
# 1 mM FITC-conjugated *Br1 was used for direct visualization of peptide delivery by fluorescence microscopy. […]
# [3] = assay type: in vitro ADME, human
# Experimental: In human studies, the total plasma free insulin concentration reached a plateau concentration of 18.9 µIU/mL based on a well cited published study of glargine pharmacokinetics after a single subcutaneous injection in type 1 diabetic subjects over 3-24 hours (Lepore, M et al 2000, Diabetes 49:2142-2148). However, the actual steady-state plateau glargine concentration was 6.4 µIU/mL because the patients were titrated to an insulin concentration of ˜12.5 µIU/mL with a continuous lispro short-acting insulin infusion before glargine was administered. After scaling for average adult blood volume of 5 L and adjusting for known cross-reactivity of our ELISA assay with various insulin analogues (44% for glargine, 22% for detemir), a table comparing patch size and insulin dose required to achieve targets of 6.4 µIU/mL within 24 hours after administration of TopiconDM™ containing insulin glargine could be determined. […] However, it is apparent that the 10 IU/0.6 cm^2 dose of insulin glargine can achieve and maintain a target steady-state total insulin concentration of 6.4 µIU/mL with a 0.6×0.6 cm patch throughout the 5-days of the study.
# The concentration of insulin glargine achieved is based on accumulation in 2.5 ml of receptor volume in the tissue model extrapolated to average adult blood volume of 5 L. […]
# [4] = Plasma glargine PK in STZ-induced male CD hairless rats (type 1 DM); assay type: in vivo, rat; details: single 2 U subcutaneous injection
# Experimental: (§1) Referring to FIG. 14, shown is a 24 Hour PK/PD study showing rapid appearance in and elimination of SC Injected Glargine from the Systemic Circulation. The red plot is the glargine concentration from pooled plasma (average±std dev of ELISA measurements). Blue plot is blood glucose (BG) concentration (average±std dev) measured by ACCU-CHEK® Aviva glucose meter. Average BG (blue line) and range (white horizontal bar) in normal CD hairless rats was determined to be ˜130 mg/dL (100-160 mg/dL) in a cohort of adult rats weighing ˜250 gm.
# ELISA to quantitate the plasma glargine level was performed in triplicate on pooled blood for each time point (alternating N=2 and N=3) using the Mercodia Iso-Insulin kit. Blood samples were pooled to allow for adequate sampling of many time points over the course of 24-hour study and to reduce variability. This method has been validated for performing PK studies.
# (§2) Green plot is plasma glargine concentration (average±std dev). Brown plot is blood glucose concentration (average±std dev) measured by ACCU-CHEK® Aviva glucose meter. Measurements were obtained from all individual animals (N=4) at each time point (i.e. blood samples were not pooled). ELISA to quantitate the plasma glargine level was performed in triplicate on blood samples from individual animals (N=4) at each time point using the Mercodia Iso-Insulin kit.
# [5] = tested on: STZ-Induced Male CD Hairless Rat: Type 1 DM; test: Blood glucose PD in STZ-induced male CD hairless rats (type 1 DM); assay type: in vivo
# Experimental: as §1
# PD (Y-axis scale on right): The blood glucose (BG) and plasma glargine plots are essentially minor images of each other, consistent with an expected dramatic BG lowering effect after insulin glargine injection. The baseline mean BG of ˜375 mg/dL rapidly reached a nadir of ˜70-80 mg/dL that was persistent between 0.5-5 hours, representing asymptomatic hypoglycemia.
# as §2
# Referring to FIG. 16, A PD study of insulin glargine BG lowering effect comparing 1 U subcutaneous (sc) injection (gold standard) versus 5 U/1 cm^2 patch was performed. Referring to FIG. 18, the blue plot is BG concentration (average±std dev) of rats that received a single 1 U subcutaneous injection. Brown plot is BG concentration of rats that received a 5 U/1 cm^2 patch. BG measurements by ACCU-CHEK® Aviva glucose meter were obtained from all individual animals (N=4) at each time point (i.e. blood samples were not pooled). ELISA to quantitate the plasma glargine level was performed in triplicate on blood samples from individual animals (N=4) at each time point using the Mercodia Iso-Insulin kit.
# [6] = cited from earlier work
substance,measurement,setting,value
insulin lispro,flux dose-response,[1],clear dose-response
ERQIKIWFQNRRMKWKKATGCLLDDGLEGLFEDID [*Br1],penetration across keratinized apical layer of mouse cervix / cervical squamous epithelium,[2],Successful transdermal delivery
insulin glargine,size of patch required to achieve and maintain target levels,[3],under 1 cm×1 cm
same,return of plasma concentration to baseline level,[4],≤ 5 h
same,t1/2,[4],~2 h
same,Cmax (plasma glargine),[4]; adult rats ~250 gm,~120 microU/mL
same,flux dose-response,[1],clear dose-response
same,saturating dose (flux not increased at 20 U/0.6 cm^2),[1],10 U/0.6 cm^2
same,hypoglycemia (BG<100 mg/dL),[5]; 1 U sc injection,rapidly became hypoglycemic
same,hypoglycemia (BG<100 mg/dL),[5]; 2 U sc injection,rapidly became hypoglycemic
same,period during which blood glucose nadir persisted,[5]; 2 U subcutaneous injection,0.5 to 5 h
same,blood glucose nadir,"[5]; 2 U subcutaneous injection, baseline mean BG ~375 mg/dL",70 to 80 mg/dL
same,actual steady-state plateau glargine concentration,[6]; after subtracting ~12.5 µIU/mL lispro infusion background,6.4 µIU/mL
same,total plasma free insulin plateau concentration,"[6]; single subcutaneous injection of glargine, type 1 diabetic subjects, over 3-24 hours (Lepore 2000)",18.9 µIU/mL
same,mean plateau plasma concentration,"[6]; single subcutaneous injection, patients with type 1 diabetes",~6.4 micoU/mL
Human growth hormone (hGH): human growth hormone (22 kDa),flux dose-response,[1],clear dose-response
insulin glulisine,flux dose-response,[1],clear dose-response
insulin aspart,flux dose-response,[1],clear dose-response
insulin detemir,Cmax for adults,"[6]; single 0.5 U/kg dose, patients with type 1 DM",208 microU/mL
